Test results: patent publication US20160297881A1 (ENGMAB, published 2016)
Where “and” joins values, the source holds several entries; their conditions need not be identical. Equal values may be shown once.

Tests used:
human CD3ε = biological target: T1, human CD3ε (human, UniProt P07766 23-207); assay: flow cytometry on Jurkat T cells expressing human CD3
T1 construct: whole, on cells; On Jurkat cells as part of the TCR/CD3 complex; also called CD3 epsilon
Experimental: a) Anti-ROR1/anti-CD3 T cell bispecific antibodies generated in Example 3 were also analyzed by flow cytometry for their binding properties to human ROR1 expressed on primary B-CLL cells or human CD3 expressed on human leukemic T cells Jurkat (ATCC TIB-152). Jurkat T cells were cultured in RPMI supplemented with 10% fetal calf serum. Briefly, cultured cells were harvested, counted and cell viability was evaluated using ViCell. Viable cells were then adjusted to 2×10⁶ cells per ml in FACS Stain Buffer (BD Biosciences) containing 0.1% BSA. 100 μl of this cell suspension were further aliquoted per well into a round-bottom 96-well plate. […] After incubation for 30 min at 4° C., cells were centrifuged (5 min, 350×g), washed twice with 150 μl/well BSA-containing FACS Stain Buffer (BD Biosciences), then cells were fixed using 100 ul BD Fixation buffer per well (#BD Biosciences, 554655) at 4° C. for 20 min, resuspended in 120 μl FACS buffer and analyzed using BD FACS CantoII. Binding of the anti-ROR1/anti-CD3 T cell bispecific antibodies to B-CLL cells and T cells were evaluated and the mean fluorescence intensity was determined gated on either ROR1-expressing B-CLL cells or CD3-expressing Jurkat T cells and plotted in histograms or dot plots. […]

human ROR1 = biological target: T2, human ROR1 (human, UniProt Q01973 30-937); assay: flow cytometry on ROR1-positive RPMI8226 cells
T2 construct: whole, on cells; Endogenous ROR1 on ROR1-positive cells; also called tyrosine-protein kinase transmembrane receptor ROR1; neurotrophic tyrosine kinase, receptor-related 1
T2 sequence (Q01973 30-937): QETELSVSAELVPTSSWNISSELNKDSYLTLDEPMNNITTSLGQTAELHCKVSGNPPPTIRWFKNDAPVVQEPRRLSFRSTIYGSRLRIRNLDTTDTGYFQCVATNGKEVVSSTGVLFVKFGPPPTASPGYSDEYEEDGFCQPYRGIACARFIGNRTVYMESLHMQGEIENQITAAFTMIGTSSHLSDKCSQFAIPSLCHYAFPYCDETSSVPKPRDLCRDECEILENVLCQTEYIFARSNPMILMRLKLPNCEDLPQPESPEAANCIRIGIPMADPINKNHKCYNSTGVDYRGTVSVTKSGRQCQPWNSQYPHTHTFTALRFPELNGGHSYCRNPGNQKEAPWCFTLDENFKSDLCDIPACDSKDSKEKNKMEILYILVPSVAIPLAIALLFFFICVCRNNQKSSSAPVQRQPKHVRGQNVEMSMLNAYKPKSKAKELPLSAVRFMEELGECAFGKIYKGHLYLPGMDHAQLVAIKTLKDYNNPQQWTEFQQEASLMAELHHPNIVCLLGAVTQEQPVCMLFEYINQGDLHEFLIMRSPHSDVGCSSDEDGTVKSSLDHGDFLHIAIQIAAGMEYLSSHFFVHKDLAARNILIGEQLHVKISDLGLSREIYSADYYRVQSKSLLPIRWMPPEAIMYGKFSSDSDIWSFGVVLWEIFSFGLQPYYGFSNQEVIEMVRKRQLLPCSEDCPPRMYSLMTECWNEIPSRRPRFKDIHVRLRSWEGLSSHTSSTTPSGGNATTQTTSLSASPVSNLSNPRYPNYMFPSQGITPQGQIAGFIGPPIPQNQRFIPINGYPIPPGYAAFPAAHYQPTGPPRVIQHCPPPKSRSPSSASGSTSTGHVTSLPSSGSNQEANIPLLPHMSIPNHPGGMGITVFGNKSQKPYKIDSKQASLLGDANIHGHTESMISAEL
Experimental: a) Anti-ROR1 antibodies coming either from the immunization approach and/or from the screening of the recombinant in vitro library described above are analyzed by flow cytometry for binding to human ROR1 on HEK293-ROR1 cells. Briefly, cultured cells are harvested, counted and cell viability is evaluated using the Trypan Blue exclusion method. Viable cells are then adjusted to 2×10⁶ cells per ml in BSA-containing FACS Stain Buffer (BD Biosciences). 90 μl of this cell suspension are further aliquoted per well into a round-bottom 96-well plate. 10 μl of the anti-ROR1 antibodies or corresponding IgG control are added to the cell-containing wells to obtain final concentrations of 0.1 pM to 200 nM. All constructs and control IgG are used at the same molarity. […] The samples are resuspended in 200 μl/well FACS Stain Buffer and acquired and analyzed using an LSR II flow cytometer with FACSDiva® software (BD Biosciences). The mean fluorescence intensity (MFI) is plotted as a function of anti-ROR1 antibody concentration to obtain the binding curve and to calculate the effective antibody concentration to reach 50% of maximal binding (EC₅₀). […]
c) ROR1 expression was then assessed on B lymphocyte myeloma RPMI8226 cell lines by flow cytometry, using the methods described above.

T1 sequence (P07766 23-207): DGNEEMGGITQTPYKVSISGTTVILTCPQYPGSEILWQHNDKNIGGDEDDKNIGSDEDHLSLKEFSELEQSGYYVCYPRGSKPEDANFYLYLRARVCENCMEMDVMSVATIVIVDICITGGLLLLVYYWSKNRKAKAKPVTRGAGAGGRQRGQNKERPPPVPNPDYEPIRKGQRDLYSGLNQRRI

binding result (human CD3ε): no binding (tested: 3 nM to 500 nM) | EC50 (human ROR1): 0.087 nM and 0.013 µg/mL
B1: anti-ROR1 IgG1 antibody (antibody, V domains shown)
VH: QEQLVESGGRLVTPGGSLTLSCKASGFDFSAYYMSWVRQAPGKGLEWIATIYPSSGKTYYATWVNGRFTISSDNAQNTVDLQMNSLTAADRATYFCARDSYADDGALFNIWGPGTLVTISS
VL: ELVLTQSPSVSAALGSPAKITCTLSSAHKTDTIDWYQQLQGEAPRYLMQVQSDGSYTKRPGVPDRFSGSSSGADRYLIIPSVQADDEADYYCGADYIGGYVFGGGTQLTVLG
notes: Bivalent human IgG1 kappa; Alexa488-labelled in some assays; also called anti-ROR1 antibody; anti-ROR1 IgG antibody
